Measured values published in patent publication US11549124B2 (priority 2017, dated 2023).

B1: HvNEP-1 (protein)
chain: MAMAIMNTLQCILFLMALIMTHQIPRATADADTPKVAMASSGAGSSFRLAAHHDHALSRSDDGFLHVQSRLDNLLPSEANVTTLRPPVASPLDMAFSVVVGLGSGKGRHDYNLKLDASGSLTWVQCKPCNPKQPQRGPLFDPKASSTFQQVAGTSQICHPPYPMEPAGQQCAFHLSGMGGMSVHGYVAMENLTMGPEAMKEFVFGCSHSTGHFNSHGTFAGVAAMGKMPTSLVMQVAARGQTRFSYCLFSGGASRHGFLRFGADVPSRSGLRTTKILPALDAHESQYYVSLVGISLDAKRLTGVRPEMFARQRGGEGGCVVDPGTPLTVLVREAYRVVEDAVWSDLRRNKAERVQREGYGLCVRKTAEIKRHLQSLSLHFAEETARLVVKPEQLFVAVESRLHGAALCLAMRPGERTVIGALQQVDTRFVYDLKDAKLSFASEPCSQDTAGVD
modifications: Hordeum vulgare

Key:
[1] = system: wheat TaPAPhy phytase (EC 3.1.3.26); assay: Residual phytase activity after treatment with protease at different phytase:protease ratios; conditions: phytase: protease ratio of 1:20
Source text: Values are mean of 3 independent technical replicates, and error bars represent means+±sd of replicates.

[2] = system: TRI4, TRI5, TRI6 genes of F. graminearum JCM9873; assay type: cell-based
[3] = target: Aspergillus ficuum phytase (Aspergillus niger, UniProt P34752)
[4] = system: phytases in crude extract from F. graminearum 7775; assay type: biochemical
[5] = system: phytases in crude extract from F. culmorum 8984; assay type: biochemical
[6] = system: F. graminearum JCM9873; assay type: cell-based

Aspergillus ficuum phytase, sequence (P34752 24-467): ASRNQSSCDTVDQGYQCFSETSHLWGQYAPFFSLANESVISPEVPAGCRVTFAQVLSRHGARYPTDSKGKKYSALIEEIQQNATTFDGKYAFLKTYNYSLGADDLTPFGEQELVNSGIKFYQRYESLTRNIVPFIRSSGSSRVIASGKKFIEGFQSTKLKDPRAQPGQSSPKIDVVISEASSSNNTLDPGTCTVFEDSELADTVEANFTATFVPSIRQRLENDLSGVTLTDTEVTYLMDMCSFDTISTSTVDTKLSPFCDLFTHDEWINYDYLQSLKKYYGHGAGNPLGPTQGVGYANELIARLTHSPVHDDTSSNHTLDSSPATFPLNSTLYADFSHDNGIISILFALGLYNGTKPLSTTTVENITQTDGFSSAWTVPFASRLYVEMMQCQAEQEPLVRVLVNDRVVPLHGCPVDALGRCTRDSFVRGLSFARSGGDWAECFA

Molecule | phytase activity after exposure to protease [1] | expression of TRI4 gene [2] | expression of TRI5 gene [2] | expression of TRI6 gene [2] | pH of peak activity for inhibiting A. ficuum phytase ([3]; 5 μg HvNEP-1, 2.5 U/ml phytase, 2 mM sodium phytate, 1 h, 37° C., pH 2.0 to 8.0) | temperature of peak activity for inhibiting A. ficuum phytase ([3]; 100 mM acetate buffer pH 5.0, 1 h) [°C] | inhibition of phytases in crude extract [4] | inhibition of phytases in crude extract [5] | 15-ADON production by F. graminearum [6] | growth (biomass accumulation) of fungal culture [6] | toxin production of fungal culture [6]
pepsin | unaffected | – | – | – | – | – | – | – | – | – | –
B1 | – | suppressed | suppressed | suppressed | 5.0 | 40 | strongly inhibited | strongly inhibited | not detectable | strongly inhibited | strongly inhibited
